# According to patent publication US20250215091A1, “Anti-GAL3 Antibodies and Compositions” (Les Laboratoires Servier, priority 2022, published 2025):
# Experiments:
# [1] = tested on: murine model of HOCI-induced fibrosis; assay: HOCI-induced murine fibrosis model: skin thickness; assay type: in vivo, mice
# Procedure: (§1) In a first experiment, control mice (n=12) received a daily intradermal injection of 300 μL of sterile phosphate buffer saline (PBS) for 5 consecutive days per week, for a duration of 42 days. HOCI alone and HOCI with antibody (HOCI-antibody) treated mice (n=12 per group) received a daily intradermal injection of 300 μL of HOCI for 5 consecutive days per week, for a duration of 42 days. Antibody-treated mice also received a subcutaneous injection of 20 mg/kg antibody, starting at day minus one and every 5 days between day 5 and day 40. Each antibody was solubilized in sterile, endotoxin-free PBS before injection. In a second experiment, the same protocol was applied, except that duration of the study was 63 days and antibodies were given every 7 days starting at day minus 1 until day 62.
# (§2) Mice that received daily injection of HOCI were also treated by intratracheal instillation of 0.5 mg/kg of TD139 compound (HOCI-TD139), a small molecule Gal3 inhibitor. In a first experiment, the administrations started from day 21 and the compound was given every 3 days until day 39. In a second experiment, the administrations started from day 20 and the compound was given every 3 days until day 62. TD139 was initially dissolved in 100% DMSO then diluted 50-fold in endotoxin-free PBS before administration.
# The evolution of skin thickness was monitored by using an external caliper, every seven days until sacrifice.
# [2] = tested on: murine model of HOCI-induced fibrosis; assay: HOCI-induced murine fibrosis model: skin and lung collagen (Picrosirius red); assay type: in vivo, mice; details: first experiment
# Procedure: as §1, §2
# At the day of study termination of the first experiment (day 42), skin and lung samples were taken, formalin-fixed and processed to individual paraffin wax blocks. Sections of skin and lung were cut from the blocks and, after rehydration, stained with Picrosirius Red coloration according to the manufacturer's protocol. Subsequently, each slide was examined and remotely analyzed employing the web-based Image J software
# [3] = tested on: murine model of bleomycin-induced fibrosis; assay: Bleomycin-induced murine lung fibrosis model: body weight and body weight metrics; assay type: in vivo, mice
# Procedure: Control bleomycin mice named ‘Bleo’ received an administration of 1.65 mg/kg bleomycin by the oropharyngeal route on Day 1. […] Antibody-treated mice also received an administration of 1.65 mg/kg bleomycin by the oropharyngeal route on Day 1 and a subcutaneous injection of 20 mg/kg antibody, starting on day minus one and on days 4, 8, 12, 16 and 20. Each antibody was solubilized in sterile, endotoxin-free PBS before injection. Mice that received bleomycin were also treated by oropharyngeal administration of 0.5 mg/kg of TD139 compound (Bleo-TD139), a small molecule Gal3 inhibitor, starting on day 12 and every 2 days until day 20. TD139 was initially dissolved in 100% DMSO.
# Mice were weighed daily. Their growth curves are represented on FIG. 12. Control mice had normal growth with a mean percent increase of 6.4% of their initial body weight measured on day minus 1.
# Body weight metrics were assessed by using two parameters called Time to weight growth (TWG) and Time to baseline (TTB), shown on FIG. 13. Time to weight growth corresponds to the point of inflection when mice show an ascending growth curve and start to regain weight within the course of the experiment. Time to baseline corresponds to the number of days required for mice to recover their initial body weight (day minus 1). The median TWG was 10 days for the untreated bleomycin group. […] TD139 compound had no efficacy on this parameter (p-value 0.53).
# [4] = tested on: rat model of ARDS; assay: Rat ARDS model (LPS challenge): neutrophils counts in BALF; assay type: in vivo; details: antibodies 14 mg/kg x3 prior to LPS; dexamethasone 10 mg/kg oral; vs LPS group; FIG. 16
# Procedure: (§3) Positive control rats received 3 doses of sterile phosphate buffer at day minus 11, minus 6 and minus 1 prior LPS challenge (0.25 mg/kg by subcutaneous route at day 1). Negative control rats received one oral dose of Dexamethasone at 10 mg/kg (dissolved in 0.5% carboxymethyl cellulose in deionized water) 2 hours prior LPS challenge (0.25 mg/kg by subcutaneous route at day 1). LPS (lipopolysaccharide) causes an acute inflammatory response, whereas dexamethasone has anti-inflammatory effects thus being the reference treatment in this model.
# (§4) Antibody-treated rats received 3 doses of antibodies (14 mg/kg) at day minus 11, minus 6 and minus 1 prior to LPS challenge (0.25 mg/kg by subcutaneous route at day 1). Each antibody was solubilized in sterile PBS before injection.
# (§5) Control rats of the experiment received 3 doses of sterile phosphate buffer at day minus 11, minus 6 and minus 1 without LPS challenge at day 1.
# The impact of anti-Gal3 antibody treatment in LPS challenged rats were evaluated by quantification of neutrophils in Bronchoalveolar Lavage Fluid and compared to the positive control group (LPS challenge with PBS treatment) (FIG. 16). […] Neutrophils numeration levels were decreased after treatment with anti-inflammatory dexamethasone.
# [5] = tested on: plasma TNF alpha; assay: Rat ARDS model (LPS challenge): plasma TNF alpha (MSD); assay type: in vivo; details: 4 h following LPS challenge; vs LPS group; FIG. 18
# Procedure: as §3, §4, §5
# For all rats, plasma sampling was performed 4 h following LPS challenge.
# The impact of anti-Gal3 antibody treatment in LPS challenged rats were evaluated on plasma cytokine levels, namely TNF alpha and KC-GRO cytokines, and compared to the positive control group (LPS challenge with PBS treatment) (respectively FIG. 18A and FIG. 18B). TNF alpha and KC-GRO were quantified by using the MSD technology from Mesoscale.
# [6] = bleomycin 1.65 mg/kg, antibody 20 mg/kg s.c.
molecule,measurement,setting,value
"E07: anti-Gal3 monoclonal antibody, IgG1 format; VH SEQ ID NO 42, VL SEQ ID NO 43 (antibody, V domains shown) VH: EVQLVESGGSLVKPGGSLRLSCAASGFTFSNYNMNWVRQAPGKGLEWISNIYGSSRYIYYADFVKGRFTISRDNAKNSLYLQMNSLRAEDTAVYYCVRSYYGGMDVWGRGTLVTVSS VL: QSVLTQPASVSGSPGQSITISCAGTSSDVGGYYSVSWYQQHPGKAPKLMIYYDSNRPSGVSNRFSGSKSGNTASLTISGLQAEDEADYYCSSYTGYSTRVFGGGTKLEIK",HOCI-induced increase in skin thickness,"[1]; first experiment, 42 days, antibody 20 mg/kg s.c., TD139 0.5 mg/kg intratracheal, vs HOCI group, FIG. 7A",significantly reduced
same,day from which reduction of skin thickness was significant,"[1]; first experiment, sustained effect until day 42",21 days
same,HOCI-induced increase in skin thickness,"[1]; second experiment, 63 days, antibody 20 mg/kg s.c. every 7 days, sustained effect until day 63, FIG. 7B",significantly reduced
same,day from which reduction of skin thickness was significant,"[1]; second experiment, sustained effect until day 63",7 days
same,lung collagen levels,"[2]; day 42, FIG. 8A","restored lung collagen levels to those of control mice, reaching statistical significance"
same,skin collagen levels,"[2]; day 42, vs HOCI group, FIG. 8B",non significant downward trend
same,body weight status on day 21,[3]; [6],full weight recovery
same,day from which body weight reached values close to those of control mice,[3]; [6],18 days
same,recovery of body weight,"[3]; bleomycin 1.65 mg/kg, antibody 20 mg/kg s.c., FIG. 12",more rapid recovery of body weight
same,reduction of median Time to weight growth (TWG),"[3]; median TWG 10 days for untreated bleomycin group, FIG. 13",2 days
same,neutrophils counts in BALF,[4],also decreased
same,TNF alpha plasma levels,[5],"also decreased, displaying an intermediary profile"
